# Where a chain is given by its changes, count along the chain named.
# B1: GH2-75 IgG (antibody, V domains shown)
# VH: EVQLVESGGGLVQPGGSLRLSCAASGSTIGNSGIHWVRQAPGKGLEWVAYIGPYGGYTSYADSVKGRFTISADTSKNTAYLQMNSLRAEDTAVYYCARFDDYHWDGMDYWGQGTLVTVSS
# VL: DIQMTQSPSSLSASVGDRVIITCRASQDVSGYVAWYQQKPGKAPKLLIYSSGVPSRFSGSGSGTDFTLTISSLQPEDFATYYCQQYYNWPVTFGQGTKVEIK
# notes: source: HEK293-F, transient transfection, purified (Protein A, Superdex 200)
# B2: GH2-40 IgG (antibody, V domains shown)
# VH: EVQLVESGGGLVQPGGSLRLSCAASGFTINSWGIHWVRQAPGKGLEWVAWIGPYWGFTSYADSVKGRFTISADTSKNTAYLQMNSLRAEDTAVYYCARFDGHFDGVMDYWGQGTLVTVSS
# VL: DIQMTQSPSSLSASVGDRVTITCRASQDVNNGVAWYQQKPGKAPKLLISGTPWLYSGVPSRFSGSGSGTDFTLTISSLQPEDFATYYCQQYFDWPLTFGQGTKVEIK
# notes: as for B1
# B3: GH2-65 IgG (antibody, V domains shown)
# VH: EVQLVESGGGLVQPGGSLRLSCAASGFTIDDWGIHWVRQAPGKGLEWVAWIWPYWGYTFYADSVKGRFTISADTSKNTAYLQMNSLRAEDTAVYYCARFLDWNNNWMDYWGQGTLVTVSS
# VL: B2 VL with N30S, N31G, G32W, G50S, T51A, P52S, W53F, F92Y, W94F, L96V
# notes: as for B1
# B4: GH2-72 IgG (antibody, V domains shown)
# VH: EVQLVESGGGLVQPGGSLRLSCAASGFTISNGGIHWVRQAPGKGLEWVAYIWPSGGYTFYADSVKGRFTISADTSKNTAYLQMNSLRAEDTAVYYCARFFNNDWIGMDYWGQGTLVTVSS
# VL: B2 VL with N30G, N31Y, G32F, P52T, F92S, D93N
# notes: as for B1
# B5: GH2-78 IgG (antibody, V domains shown)
# VH: B2 VH with S31N, W50G, W55G, F57Y, D100G, G101V, H102I, F103I, V106I
# VL: B2 VL with G32S, G50W, T51P, P52T, W53G, F92Y, D93S, L96I
# notes: as for B1
# B6: GH2-91 IgG (antibody, V domains shown)
# VH: B2 VH with S31N, W32F, W50S, Y54F, F57Y, D100G, G101N, H102D, F103Y
# VL: B2 VL with Q27H, N30G, N31W, G50W, T51P, P52T, W53Y, D93S, W94Y, L96I
# notes: as for B1
# B7: GH2-7 IgG (antibody, V domains shown)
# VH: EVQLVESGGGLVQPGGSLRLSCAASGFTIDDYFIHWVRQAPGKGLEWVAGIGPSWGYTFYADSVKGRFTISADTSKNTAYLQMNSLRAEDTAVYYCARFGHNFVNGMDYWGQGTLVTVSS
# VL: B2 VL with N30S, N31G, G32W, P52A, W53G, F92Y, W94F, L96V
# notes: as for B1
# B8: GH2-61 IgG (antibody, V domains shown)
# VH: B2 VH with S31N, W50G, G52W, W55G, F57Y, S59Y, D100Y, G101N, F103H, D104G
# VL: B2 VL with N30G, N31S, G32N, G50W, T51S, P52T, W53S, F92G, D93G, L96I
# notes: as for B1
# B9: GH2-87 IgG (antibody, V domains shown)
# VH: EVQLVESGGGLVQPGGSLRLSCAASGFTISSYGIHWVRQAPGKGLEWVAGIGPFGGFTSYADSVKGRFTISADTSKNTAYLQMNSLRAEDTAVYYCARFLNIHLGWMDYWGQGTLVTVSS
# VL: B2 VL with G32S, S49F, P52R, W53Y, F92Y, D93N, W94Y
# notes: as for B1
# B10: GH2-81 IgG (antibody, V domains shown)
# VH: B2 VH with S31D, W32Y, W50G, Y54F, W55G, F57Y, D100G, G101V, H102L
# VL: B2 VL with N31D, G50F, P52T, W53G, F92Y, D93N, L96I
# notes: as for B1
# B11: GH2-59 IgG (antibody, V domains shown)
# VH: EVQLVESGGGLVRPGGSLRLSCAASGFTIGDWYIHWVRQAPGKGLEWVAGIGPYWGYTSYADSVKGRFTISADTSKNTAYLQMNSLRAEDTAVYYCARFVGDVWHDMDYWGQGTLVAVSS
# VL: B2 VL with N30S, N31G, G50W, P52G, W53S, Y91W, F92S, W94F, L96I
# notes: as for B1
# B12: GH2-42 IgG (antibody, V domains shown)
# VH: B2 VH with N30S, S31N, W50G, W55G, F57Y, D100G, G101F, H102Y, V106I
# VL: B2 VL with N30S, N31S, T51P, P52T, W53G, F92Y, E105K, I106R, K107G
# notes: as for B1
# B13: GH2-60 IgG (antibody, V domains shown)
# VH: B3 VH with D30S, W32F, W50G, F59Y, L100W, D101N, W102I, N103Y, N104W, W106V
# VL: B2 VL with S7G, N30G, N31S, G32W, G50S, T51P, W53S, Y91G, W94S, L96I
# notes: as for B1
# B14: GH2-66 IgG (antibody, V domains shown)
# VH: B3 VH with D30G, D31N, W50Y, Y57F, F59Y, N104L, N105L
# VL: DIQMTQSPSSLSASVGDRVTITCRASQDVYSYVAWYQQKPGKAPKLLISYASGLYSGVPSRFSGSGSGTDFTLTISSLQPEDFATYYCQQYYNSPITFGQGTKVEIK
# notes: as for B1
# B15: GH2-54 IgG (antibody, V domains shown)
# VH: EVQLVESGGGLVQPGGSLRLSCAASGFTISDGSIHWVRQAPGKGLEWVAFIGPYWGFTYYADSVKGRFTISADTSKNTAYLQMNSLRAEDTAVYYCARFVNWVHYGMDYWGQGTLVTVSS
# VL: DIQMTQSPSSLSASVGDRVTITCRASQDVNDNVAWYQQKPGKAPKLLIFGSSSLYSGVPSRFSGSGSGTDFTLTISSLQPEDFATYYCQQGWNYPFTFGQGTKVEIK
# notes: as for B1
# B16: A21 (positive control IgG) (antibody, V domains shown)
# VH: EVQLQQSGPEVVKTGASVKISCKASGYSFTGYFINWVKKNSGKSPEWIGHISSSYATSTYNQKFKNKAAFTVDTSSSTAFMQLNSLTSEDSAVYYCVRSGNYEEYAMDYWGQGTSVTVSS
# VL: DIVLTQTPSSLPVSVGEKVTMTCKSSQTLLYSNNQKNYLAWYQQKPGQSPKLLISWAFTRKSGVPDRFTGSGSGTDFTLTIGSVKAEDLAVYYCQQYSNYPWTFGGGTRLEIK
# notes: Positive control IgG; also called Antibody A21
# B17: Fab37 (positive control IgG) (antibody, V domains shown)
# VH: EVQLVESGGGLVQPGGSLRLSCAASGFSIWWSWIHWVRQAPGKGLEWVASISPSSGWTSYADSVKGRFTISADTSKNTAYLQMNSLRAEDTAVYYCARWWSSAMDYWGQGTLVTVSS
# VL: DIQMTQSPSSLSASVGDRVTITCRASQSVSSAVAWYQQKPGKAPKLLIYSASSLYSGVPSRFSGSRSGTDFTLTISSLQPEDFATYYCQQWWWWPSTFGQGTKVEIK
# Target: T1, extracellular domain (ECD) of human epidermal growth factor receptor 2 (HER2) (Homo sapiens, UniProt P04626)
# T1 construct: human epidermal growth factor receptor 2 (HER2), extracellular domain; also called HER2/ECD
# Experiment: SPR; BIAcore T200; HER2/ECD immobilised on a CM5 chip by amine coupling to 1000 RU; IgG flowed in PBST (0.05% Tween 20) at 30 uL/min; regeneration 10 mM glycine pH 1.5; global fit to a 1:1 binding model
# Conditions: both partners purified
Kd,koff,kon,Binder
0.177 nM,0.000149 s⁻¹,840000 M⁻¹ s⁻¹,B1
3.04 nM,0.000217 s⁻¹,71200 M⁻¹ s⁻¹,B2
31.8 nM,0.0111 s⁻¹,350000 M⁻¹ s⁻¹,B3
11.9 nM,10.9 s⁻¹,9.15e+08 M⁻¹ s⁻¹,B4
49.4 nM,0.00163 s⁻¹,33000 M⁻¹ s⁻¹,B5
2.47 nM,0.00679 s⁻¹,2.75e+06 M⁻¹ s⁻¹,B6
9.84 nM,0.0608 s⁻¹,6.18e+06 M⁻¹ s⁻¹,B7
0.27 nM,0.000104 s⁻¹,387000 M⁻¹ s⁻¹,B8
13.3 nM,0.00525 s⁻¹,395000 M⁻¹ s⁻¹,B9
13.4 nM,0.0131 s⁻¹,975000 M⁻¹ s⁻¹,B10
6.02 nM,0.000288 s⁻¹,47800 M⁻¹ s⁻¹,B11
0.169 nM,0.000235 s⁻¹,1.39e+06 M⁻¹ s⁻¹,B12
1.53 nM,0.00556 s⁻¹,3.64e+06 M⁻¹ s⁻¹,B13
54.5 nM,0.328 s⁻¹,6.03e+06 M⁻¹ s⁻¹,B14
37.9 nM,0.0128 s⁻¹,339000 M⁻¹ s⁻¹,B15

# Target: T2, extracellular domain (ECD) of human epidermal growth factor receptor 2 (HER2) (Homo sapiens, UniProt P04626)
# T2 construct: human epidermal growth factor receptor 2 (HER2), extracellular domain (domains I-IV); also called HER2/ECD
# Experiment: competition binding assay; competition of S90 scFvs with IgGs (six mouse IgGs, four positive control IgGs) for binding to HER2/ECD; procedure in the Supplemental Experimental Procedures
# Conditions: not given
row,binding result,Binder
1,binds,B16
2,binds,B17

# Reference: PMC5378893 (Scientific Reports, 2015)
